From paper PMC11100808

Biological target: biotinylated human CK1δ catalytic domain (CK1δ ΔC) (human) (UniProt P48730)
Assay: BLI

Q: Which Kd does the source give for “LIN-42 CK1BD + Tail (from UniProt Q65ZG8 402-597) (domain or fragment)” here?
A: The Kd was 209 nM.
